Assay results reported in patent US20200249231.

What was measured:
[1] = target: T1, NYRFK (5-mer on peptide array)
T1 chain: NYRFK

[2] = target: T2, Z-[GGGRYRSKGGGG]
T2 chain: GGGRYRSKGGGG

[3] = target: T3, EWIAQ (5-mer on peptide array)
T3 chain: EWIAQ

[4] = target: T4, WYALQ (5-mer on peptide array)
T4 chain: WYALQ

[5] = target: T5, RFYSK (5-mer on peptide array)
T5 chain: RFYSK

[6] = target: T6, WQRQR (5-mer on peptide array)
T6 chain: WQRQR

[7] = target: T7, AYRQR (5-mer on peptide array)
T7 chain: AYRQR

[8] = target: T8, YKGRG (5-mer on peptide array)
T8 chain: YKGRG

[9] = target: T9, Z-[GGGFRQRGGGGG]
T9 chain: GGGFRQRGGGGG

[10] = target: T10, DYALQ (5-mer on peptide array)
T10 chain: DYALQ

[11] = target: T11, Z-[GGGRQRQRGGGG]
T11 chain: GGGRQRQRGGGG

[12] = target: T12, EYWLQ (5-mer on peptide array)
T12 chain: EYWLQ

[13] = target: T13, Z-[GGGFRQRQGGGG]
T13 chain: GGGFRQRQGGGG

[14] = target: T14, FYESK (5-mer on peptide array)
T14 chain: FYESK

[15] = target: T15, Thermus thermophilus SlyD FKBP domain with S. mobaraensis MTG Q-tag DYALQ instead of RYRQR
T15 chain: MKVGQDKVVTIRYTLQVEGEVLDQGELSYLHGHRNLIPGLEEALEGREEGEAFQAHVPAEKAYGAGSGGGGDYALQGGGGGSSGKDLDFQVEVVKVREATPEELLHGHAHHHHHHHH

[16] = target: T16, RYESK (5-mer on peptide array)
T16 chain: RYESK

[17] = target: T17, EWALQ (5-mer on peptide array)
T17 chain: EWALQ

[18] = target: T18, RYGKS (5-mer on peptide array)
T18 chain: RYGKS

[19] = target: T19, FRQRG (5-mer on peptide array)
T19 chain: FRQRG

[20] = target: T20, YKYRQ (5-mer on peptide array)
T20 chain: YKYRQ

[21] = target: T21, Z-[GGGDYALQGGGG]
T21 chain: GGGDYALQGGGG

[22] = target: T22, YRYRQ (5-mer on peptide array)
T22 chain: YRYRQ

[23] = target: T23, Z-[GGGMLAQGSGGG]
T23 chain: GGGMLAQGSGGG

[24] = target: T24, YRQTR (5-mer on peptide array)
T24 chain: YRQTR

[25] = target: T25, Z-[GGGYKGRGGGGG]
T25 chain: GGGYKGRGGGGG

[26] = target: T26, EYVLQ (5-mer on peptide array)
T26 chain: EYVLQ

B1: Kutzneria albida microbial transglutaminase, activated enzyme (KalbTGt3) (protein)
chain: APLAPPLAEDRSYRTWRVEDYVEAWERYHGREMTEDERENLARGCIGVTVVNLNREDLSNPPLNLSFGSLRTAEAVQAALNKIVDTHPSPAQYEAAVAKDPILKRLKNVVKALPSWIDSAKLKASIFSKRFYSWQNPDWSEERAHTTYRPDRETDQVDMSTYRYRARPGYVNFDYGWFDQDTNTWWHANHEEPRMVVYQSTLRHYSRPLQDFDEQVFTVAFAKKDGGGSGHHHHHHHH
- 5-mer peptide array, incorporation of biotinylated glutamine donor Z-APRYRQRAAGGG-PEG-biotin [1]: the top 17 lysine-donor substrates identified on the 5-mer peptide array with KalbTG
- Reaction Rate in Solution (pmol s^-1), GLDH-coupled assay with 200 µM glutamine donor [2]: 3.26 pmol/s
- 5-mer peptide array signal with KalbTG [3]: exhibited relatively lower signal on the KalbTG array
- 5-mer peptide array signal with KalbTG [4]: exhibited relatively lower signal on the KalbTG array
- 5-mer peptide array, incorporation of biotinylated glutamine donor Z-APRYRQRAAGGG-PEG-biotin [5]: the top 17 lysine-donor substrates identified on the 5-mer peptide array with KalbTG
- 5-mer peptide array, incorporation of biotinylated amine donor [6]: the top 22 glutamine-donor substrates identified on the 5-mer peptide array with KalbTG
- 5-mer peptide array, incorporation of biotinylated amine donor [7]: the top 22 glutamine-donor substrates identified on the 5-mer peptide array with KalbTG
- Array signal (log2) [8]: 12.2 log2
- Reaction rate in solution (pmol/s), GLDH-coupled assay [9]: 2.11 pmol/s
- 5-mer peptide array signal with KalbTG [10]: exhibited relatively lower signal on the KalbTG array
- Array signal (log2) [10]: 7.22 log2
- Reaction rate in solution (pmol/s), GLDH-coupled assay [11]: 2.06 pmol/s
- 5-mer peptide array signal with KalbTG [12]: exhibited relatively lower signal on the KalbTG array
- Reaction rate in solution (pmol/s), GLDH-coupled assay [13]: 3.07 pmol/s
- 5-mer peptide array, incorporation of biotinylated glutamine donor Z-APRYRQRAAGGG-PEG-biotin [14]: the top 17 lysine-donor substrates identified on the 5-mer peptide array with KalbTG
- labeling with KalbTG K-tag-Cy3 (SDS-PAGE, in-gel fluorescence) [15]: showed no incorporation of label when incubated with KalbTG
- 5-mer peptide array, incorporation of biotinylated glutamine donor Z-APRYRQRAAGGG-PEG-biotin [16]: the top 17 lysine-donor substrates identified on the 5-mer peptide array with KalbTG
- Array signal (log2) [16]: 12.7 log2
- 5-mer peptide array signal with KalbTG [17]: exhibited relatively lower signal on the KalbTG array
- Array signal (log2) [18]: 12.4 log2
- 5-mer peptide array, incorporation of biotinylated amine donor [19]: the top 22 glutamine-donor substrates identified on the 5-mer peptide array with KalbTG
- Array signal (log2) [19]: 8.82 log2
- 5-mer peptide array, incorporation of biotinylated amine donor [20]: the top 22 glutamine-donor substrates identified on the 5-mer peptide array with KalbTG
- Array signal (log2) [20]: 8.7 log2
- GLDH-coupled activity assay [21]: KalbTG exhibited no activity with preferred S. mobaraensis MTG substrates DYALQ (SEQ ID NO: 22) and MLAQG (SEQ ID NO: 13)
- Reaction rate in solution (pmol/s), GLDH-coupled assay [21]: -0.05 pmol/s
- 5-mer peptide array, incorporation of biotinylated amine donor [22]: the top 22 glutamine-donor substrates identified on the 5-mer peptide array with KalbTG
- Array signal (log2) [22]: 8.99 log2
- GLDH-coupled activity assay [23]: KalbTG exhibited no activity with preferred S. mobaraensis MTG substrates DYALQ (SEQ ID NO: 22) and MLAQG (SEQ ID NO: 13)
- Reaction rate in solution (pmol/s), GLDH-coupled assay [23]: -0.11 pmol/s
- 5-mer peptide array, incorporation of biotinylated amine donor [24]: the top 22 glutamine-donor substrates identified on the 5-mer peptide array with KalbTG
- Reaction Rate in Solution (pmol s^-1), GLDH-coupled assay with 200 µM glutamine donor [25]: 3.01 pmol/s
- 5-mer peptide array signal with KalbTG [26]: exhibited relatively lower signal on the KalbTG array
